Assay [1] deals with human plasma glycoproteins. Briefly: far-Western, overlay or dot blot; human or rat plasma diluted 1:10, boiled with LDS sample buffer and 50 mM DTT, separated on 3 to 8% polyacrylamide gradient gels, transferred to BioTraceNT; GST-SLBR 5 nM in DPBS with 1x Blocking Reagent, 90 min, room temperature; detected with anti-GST; in duplicate.
In assay [2] the target is biotinylated Neu5Acα2-3Gal disaccharide. Briefly: ELISA. Conditions: 500 nM immobilized GST-SLBR, read off a plot.
In assay [3] the target is biotinylated Neu5Gcα2-3Gal disaccharide. Briefly: ELISA. Conditions: 500 nM immobilized GST-SLBR, read off a plot. (In general: An ELISA detects its analyte on a solid surface through an enzyme-linked reagent.)
The target of assay [4] is rat plasma glycoproteins. In words: far-Western blot densitometry (ImageJ). Conditions: rat plasma; parent: est. 13; read off a plot.
In assay [5] the target is human plasma glycoproteins. Briefly: far-Western blot densitometry (ImageJ). Conditions: human plasma; parent: est. 4.0; read off a plot.
The mark [6] stands for this setting: 1 μg/ml biotinylated disaccharide, parent: est. 0.16.
Where [7] appears, read: highest ligand concentration point, about 5 μg/ml biotinylated disaccharide, parent: est. 0.31.
Where [8] appears, read: 1 μg/ml biotinylated disaccharide, parent: est. 0.18.
[9] abbreviates: highest ligand concentration point, about 5 μg/ml biotinylated disaccharide, parent: est. 0.41.

In turn, “GST-tagged SLBRHsa V370F (domain or fragment)” came in with a fold decrease in total binding against wild-type SLBRHsa in assay [1] of 3 fold.

With “GST-tagged SLBR_(SrpA) (Siglec-like binding region of the serine-rich repeat adhesin SrpA, Streptococcus sanguinis strain SK36), wild type (from UniProt A3CM52) Y368F”, the response amounted to 0.26 A450 in assay [2] (setting [6]), 0.54 A450 in assay [2] (setting [7]), 0.62 A450 in assay [3] (setting [8]) and 0.99 A450 in assay [3] (setting [9]). For the same substance, the values for the response (Signal Intensity (x1000)) in assay [4] and in assay [5] were 15 and 0.2, respectively.

Regarding “GST-tagged SLBR_(SrpA) (Siglec-like binding region of the serine-rich repeat adhesin SrpA, Streptococcus sanguinis strain SK36), wild type (from UniProt A3CM52) Y368I”, the response in assay [2] (setting [6]) is 0.16 A450; in assay [2] (setting [7]), 0.32 A450; in assay [3] (setting [8]), 0.81 A450; in assay [3] (setting [9]) it was 1.1 A450. Besides, the response (Signal Intensity (x1000)) in assay [4] is 19; in assay [5], 0.

With “GST-tagged SLBR_(SrpA) (Siglec-like binding region of the serine-rich repeat adhesin SrpA, Streptococcus sanguinis strain SK36), wild type (from UniProt A3CM52) Y368V”, the response in assay [2] (setting [6]) turned out to be 0.12 A450; in assay [2] (setting [7]) it was 0.21 A450; in assay [3] (setting [8]), 0.62 A450; in assay [3] (setting [9]), 0.98 A450. Also, the response (Signal Intensity (x1000)) in assay [4] came to 18; in assay [5], 0.

These data come from paper PMC12446635.
